Results taken from patent US20210047372A1 (Affibody, published 2021).
Read-outs that look alike come from different tables or passages of the source.

What was measured:
Experiment in all cases: SPR, Biacore T200; target immobilized on CM5, His6-tagged Y variant injected; 1:1 Langmuir
[1] = molecular target: T1, complement component 4 (C4) (UniProt P0C0L4 20-675; P0C0L4 680-1446; P0C0L4 1454-1744, limits assumed)
T1 construct: Natural C4 is a three-chain protein (alpha, beta, gamma) made from one precursor; Biotinylated for ELISA, amine-coupled to the chip for SPR; also called b-C4
Method: (§1) Kinetic constants (kₐ and kd) and affinities (KD) were determined for Hiss-tagged Y variants using a Biacore T200 instrument (GE Healthcare). Target proteins C4, IL-6 and insulin, respectively, were immobilized in separate flow cells on the carboxylated dextran layer of different CM5 chip surfaces (GE Healthcare).
(§2) Immobilization was performed using amine coupling chemistry according to the manufacturer's protocol and PBS pH 7.4 supplemented with 0.1 Tween20 (PBST 0.1%) as running buffer. The ligand immobilization levels on the surfaces were 3280-8830 RU for C4, 495-1184 RU for IL-6, and 270-282 RU for insulin. One flow cell surface on each chip was activated and deactivated for use as blank during analyte injections. In the kinetic experiment, PBST 0.1% was used as running buffer at a flow rate of 30 μl/min. The analytes, i.e. Y variants, were each diluted in PBST 0.1 buffer at concentrations of 1000, 500, 100, 50 and 10 nM and injected for 5 min, followed by dissociation in running buffer for 3 min. After dissociation, the surfaces were regenerated with one injection of 30 μl 10 mM HCl. Kinetic constants were calculated from the sensorgrams using the Langmuir 1:1 model of Biacore T200 Evaluation software 2.0 (GE Healthcare).

interleukin 6 (IL-6) = molecular target: T2, interleukin 6 (IL-6) (UniProt P05231 30-212)
T2 construct: also called b-IL-6
Method: as §1, §2

insulin [2] = molecular target: T3, insulin (UniProt P01308 25-54; P01308 90-110, limits assumed)
T3 construct: Mature insulin has two chains (A and B) from one precursor; also called b-insulin
Method: as §1, §2

insulin [3] = molecular target: T3, insulin; remark: listed apart in the source
Method: as §1, §2

T1 sequence (P0C0L4 20-675 limits assumed, chain 1 of 3): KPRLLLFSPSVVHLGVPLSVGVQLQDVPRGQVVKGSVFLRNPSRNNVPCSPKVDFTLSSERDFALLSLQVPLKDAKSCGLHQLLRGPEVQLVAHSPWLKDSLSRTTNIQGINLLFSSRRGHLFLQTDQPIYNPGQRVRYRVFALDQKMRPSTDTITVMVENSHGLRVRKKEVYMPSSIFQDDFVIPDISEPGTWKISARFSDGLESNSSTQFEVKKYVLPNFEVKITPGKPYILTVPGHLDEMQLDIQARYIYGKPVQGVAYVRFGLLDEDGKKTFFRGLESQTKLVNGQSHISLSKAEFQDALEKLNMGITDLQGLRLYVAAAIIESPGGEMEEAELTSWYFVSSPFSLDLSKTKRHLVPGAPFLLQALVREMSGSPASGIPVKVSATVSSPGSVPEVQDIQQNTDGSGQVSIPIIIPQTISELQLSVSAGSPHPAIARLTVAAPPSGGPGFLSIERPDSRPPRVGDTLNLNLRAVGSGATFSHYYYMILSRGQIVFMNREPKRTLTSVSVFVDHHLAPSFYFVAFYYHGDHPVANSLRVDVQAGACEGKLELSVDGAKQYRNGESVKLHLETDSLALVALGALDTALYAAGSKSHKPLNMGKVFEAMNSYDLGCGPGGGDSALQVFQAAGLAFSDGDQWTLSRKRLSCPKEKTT
T1 sequence (P0C0L4 680-1446 limits assumed, chain 2 of 3): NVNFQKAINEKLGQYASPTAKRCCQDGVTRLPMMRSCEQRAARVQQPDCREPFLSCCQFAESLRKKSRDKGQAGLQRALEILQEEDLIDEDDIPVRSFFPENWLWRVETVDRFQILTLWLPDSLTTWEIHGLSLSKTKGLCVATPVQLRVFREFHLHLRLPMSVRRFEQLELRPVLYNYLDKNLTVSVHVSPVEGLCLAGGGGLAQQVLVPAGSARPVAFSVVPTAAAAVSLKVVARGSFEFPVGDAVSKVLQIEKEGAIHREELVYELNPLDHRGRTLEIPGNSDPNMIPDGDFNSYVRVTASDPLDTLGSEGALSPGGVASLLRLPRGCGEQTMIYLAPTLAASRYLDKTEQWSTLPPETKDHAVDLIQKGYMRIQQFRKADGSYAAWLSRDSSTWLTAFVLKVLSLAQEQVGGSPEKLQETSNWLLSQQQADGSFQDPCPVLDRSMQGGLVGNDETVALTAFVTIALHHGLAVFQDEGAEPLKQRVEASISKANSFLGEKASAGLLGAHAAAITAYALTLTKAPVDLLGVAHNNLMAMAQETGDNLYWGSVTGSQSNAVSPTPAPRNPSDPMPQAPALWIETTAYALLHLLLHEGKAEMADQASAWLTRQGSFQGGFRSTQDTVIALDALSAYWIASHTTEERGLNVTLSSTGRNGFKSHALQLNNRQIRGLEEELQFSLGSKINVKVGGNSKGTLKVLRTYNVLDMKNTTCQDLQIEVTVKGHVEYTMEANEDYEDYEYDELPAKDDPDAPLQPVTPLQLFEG
T1 sequence (P0C0L4 1454-1744 limits assumed, chain 3 of 3): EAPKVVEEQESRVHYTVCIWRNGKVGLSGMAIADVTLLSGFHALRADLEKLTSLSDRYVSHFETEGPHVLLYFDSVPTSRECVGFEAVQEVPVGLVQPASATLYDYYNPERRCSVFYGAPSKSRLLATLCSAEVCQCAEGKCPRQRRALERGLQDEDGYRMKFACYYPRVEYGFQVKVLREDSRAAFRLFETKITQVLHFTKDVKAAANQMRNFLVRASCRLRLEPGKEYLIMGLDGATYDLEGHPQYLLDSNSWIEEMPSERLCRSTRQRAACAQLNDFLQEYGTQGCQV
T3 sequence (P01308 25-54 limits assumed, form in doubt, chain 1 of 2): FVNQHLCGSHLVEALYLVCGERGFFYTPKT
T3 sequence (P01308 90-110 limits assumed, form in doubt, chain 2 of 2): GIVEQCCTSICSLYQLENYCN

Row | Binder | Kd (interleukin 6 (IL-6)) [nM] | koff (interleukin 6 (IL-6)) [s⁻¹] | kon (interleukin 6 (IL-6)) [M⁻¹ s⁻¹] | further results
1 | Y02358 (designed binder, From library Ylib002Naive.I) MGSSHHHHHHGSSLAEAKEAAIAELDSKGVGADDIKLIQDAPSVEGVQEIKQFILAQLPA | – | – | – | Kd [1]: 16 nM; koff [1]: 0.0014 s⁻¹; kon [1]: 90000 M⁻¹ s⁻¹
2 | Y02465 (designed binder, From library Ylib002Naive.I) MGSSHHHHHHGSSLAEAKEAAIAELDSKGVGANHIKAIQHAQFVEIVQLLKQAILAVLPA | 270 | 0.0021 | 7500 | –
3 | Y02701 (designed binder, Y02415 with K15Y) MGSSHHHHHHGSSLAEAKEAAIAELDSYGVGAGDIKDIQDALLVEIVQLLKQAILAVLPA | 210 | 0.0036 | 21000 | –
4 | Y02700 (designed binder, Y02415 with I9L) MGSSHHHHHHGSSLAEAKEAALAELDSKGVGAGDIKDIQDALLVEIVQLLKQAILAVLPA | 62 | 0.0025 | 46000 | –
5 | Y02699 (designed binder, Y02444 with Q26E) MGSSHHHHHHGSSLAEAKEAAIAELDSKGVGAVEIKQIEEALLVEIVQLLKQAILAVLPA | 200 | 0.0029 | 19000 | –
6 | Y02698 (designed binder, Y02444 with K15Y) MGSSHHHHHHGSSLAEAKEAAIAELDSYGVGAVEIKQIQEALLVEIVQLLKQAILAVLPA | 120 | 0.0033 | 28000 | –
7 | Y02697 (designed binder, Y02444 with I9L) MGSSHHHHHHGSSLAEAKEAALAELDSKGVGAVEIKQIQEALLVEIVQLLKQAILAVLPA | 150 | 0.009 | 50000 | –
8 | Y02702 (designed binder, Y02415 with Q26E) MGSSHHHHHHGSSLAEAKEAAIAELDSKGVGAGDIKDIEDALLVEIVQLLKQAILAVLPA | 440 | 0.007 | 16000 | –
9 | Y02703 (designed binder, Y02444 with K15Y + Q26E) MGSSHHHHHHGSSLAEAKEAAIAELDSYGVGAVEIKQIEEALLVEIVQLLKQAILAVLPA | 120 | 0.0025 | 21000 | –
10 | Y02495 (designed binder, From library Ylib002Naive.I) MGSSHHHHHHGSSLAEAKEAAIAELDSKGVGAEEIKEIQGAMLVEIVQLLKQAILAVLPA | 240 | 0.0017 | 7100 | –
11 | Y02303 (designed binder, From library Ylib002Naive.I) MGSSHHHHHHGSSLAEAKEAAIAELDSKGVGAEEIKWIQNAWSVEGVQIMKQQILAELPA | – | – | – | Kd [1]: 2200 nM; koff [1]: 0.21 s⁻¹; kon [1]: 96000 M⁻¹ s⁻¹
12 | Y02337 (designed binder, From library Ylib002Naive.I) MGSSHHHHHHGSSLAEAKEAAIAELDSKGVGAAEIKWIQHASTVEGVQGRKQQILAELPA | – | – | – | Kd [1]: 1900 nM; koff [1]: 0.81 s⁻¹; kon [1]: 420000 M⁻¹ s⁻¹
13 | Y02309 (designed binder, From library Ylib002Naive.I) MGSSHHHHHHGSSLAEAKEAAIAELDSKGVGADLIKKIQKAESVEGVQFWKQEILATLPA | – | – | – | Kd [1]: 70 nM; koff [1]: 0.0025 s⁻¹; kon [1]: 36000 M⁻¹ s⁻¹
14 | Y00792 (designed binder, From library Ylib002Naive.I) MGSSHHHHHHGSSLAEAKEAAIAELDSKGVGADLIKKIQQASSVEGVQFWKQEILAQLPA | – | – | – | Kd [1]: 62 nM; koff [1]: 0.0017 s⁻¹; kon [1]: 27000 M⁻¹ s⁻¹
15 | Y02330 (designed binder, From library Ylib002Naive.I) MGSSHHHHHHGSSLAEAKEAAIAELDSKGVGAELIKKIQHAESVEGVQFWKQEILAYLPA | – | – | – | Kd [1]: 48 nM; koff [1]: 0.0046 s⁻¹; kon [1]: 96000 M⁻¹ s⁻¹
16 | Y00032 (designed binder) MGSSHHHHHHGSSLAEAKEAAIAELDSKGVGAYQKSFIELAKSVEHVELLKEAILADLP | – | – | – | Kd (insulin [2]): 63 nM; Kd (insulin [3]): 63 nM
17 | Y00294 (designed binder, Y00270 with E35Q + A43K) MGSSHHHHHHGSSLAEAKEAAIAELDSKGVGAYQIKFIELAKSVEHVQLLKEAILKDLP | – | – | – | Kd (insulin [3]): 490 nM
18 | Y00270 (designed binder, Y00032 with K22I + S23K) MGSSHHHHHHGSSLAEAKEAAIAELDSKGVGAYQIKFIELAKSVEHVELLKEAILADLP | – | – | – | Kd (insulin [2]): 77 nM; Kd (insulin [3]): 77 nM
19 | Y00295 (designed binder, Y00270 with E35Q + E39Q + A43K) MGSSHHHHHHGSSLAEAKEAAIAELDSKGVGAYQIKFIELAKSVEHVQLLKQAILKDLP | – | – | – | Kd (insulin [3]): 580 nM
20 | Y00292 (designed binder, Y00032 with S23K + E35Q + E39Q) MGSSHHHHHHGSSLAEAKEAAIAELDSKGVGAYQKKFIELAKSVEHVQLLKQAILADLP | – | – | – | Kd (insulin [3]): 450 nM
21 | Y00293 (designed binder, Y00270 with E35Q + E39Q; also called Y000293) MGSSHHHHHHGSSLAEAKEAAIAELDSKGVGAYQIKFIELAKSVEHVQLLKQAILADLP | – | – | – | Kd (insulin [3]): 490 nM
